This note sets out measurements from PMC11538452.

The target in the experiment is A9 anti-CD40 antibody, deimmunized variant. The experiment is described as follows: SPR; wildtype against deimmunized variant on the CD40 protein (Supplementary Fig. 3B); format of this experiment not told in what was shown.

The Kd is the concentration at which binding is half-saturated. A high value points to weaker binding.

Sequence of human CD40-Fc (P25942 21-193): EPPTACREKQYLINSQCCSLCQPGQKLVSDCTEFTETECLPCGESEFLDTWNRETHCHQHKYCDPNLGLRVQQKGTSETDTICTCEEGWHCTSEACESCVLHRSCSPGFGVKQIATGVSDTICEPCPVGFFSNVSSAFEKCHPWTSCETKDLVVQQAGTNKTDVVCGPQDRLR

Consider “human CD40-Fc (from UniProt P25942 21-193) (Fc fusion)”, for which the equilibrium dissociation constant (Kd) stood at 1.6 nM.
